Measurements from article PMC12395305 (2025).

What was measured:
beta-2 microglobulin [1] = biological target: T1, beta-2 microglobulin (UniProt P61769 21-119); assay: BLI
beta-2 microglobulin [2] = biological target: T1, beta-2 microglobulin; assay: BLI; remark: listed apart in the source
[3] = biological target: T2, green fluorescent protein (UniProt P42212 2-238 = GFP); assay: SPR
GFP-K41R = assay: SPR
GFP-K140R = assay: SPR
GFP-K166R = assay: SPR
GFP-K162R = assay: SPR
GFP-K131S = assay: SPR
[4] = biological target: T2, green fluorescent protein; assay: SPR; remark: listed apart in the source

T1 sequence (P61769 21-119): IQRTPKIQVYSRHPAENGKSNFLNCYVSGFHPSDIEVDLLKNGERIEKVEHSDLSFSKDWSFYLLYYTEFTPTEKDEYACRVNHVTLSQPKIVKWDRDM

B1: nanobody 24 (VHH)
VHH: QVQLQESGGGSVQAGGSLRLSCAASGYTDSRYCMAWFRQAPGKEREWVARINSGRDITYYADSVKGRFTFSQDNAKNTVYLQMDSLEPEDTATYYCATDIPLRCRDIVAKGGDGFRYWGQGTQVTVSS
Kd (beta-2 microglobulin [1]): 105 nM | koff (beta-2 microglobulin [2]): 0.018 s⁻¹

B2: αGFP-S54C (VHH)
VHH: QVQLVESGGALVQPGGSLRLSCAASGFPVNRYSMRWYRQAPGKEREWVAGMSCAGDRSSYEDSVKGRFTISRDDARNTVYLQMNSLKPEDTAVYYCNVNVGFEYWGQGTQVTVSS
Kd [3]: 1.11 nM | Kd (GFP-K41R): 1.16 nM | koff (GFP-K41R): 0.000174 s⁻¹ | Kd (GFP-K140R): 1.05 nM | koff (GFP-K140R): 0.000169 s⁻¹ | Kd (GFP-K166R): 1.11 nM | koff (GFP-K166R): 0.000175 s⁻¹ | Kd (GFP-K162R): 1.26 nM | koff (GFP-K162R): 0.000171 s⁻¹ | Kd (GFP-K131S): 1.16 nM | koff (GFP-K131S): 0.000168 s⁻¹ | koff [4]: 0.000188 s⁻¹
